Key:
[1] = biological target: T1, EGFR in the form of A431 cell membrane receptor preparations (Homo sapiens, UniProt P00533); test: EGFR kinase ELISA; format: biochemical; conditions: variant alone, compared with MLX hEGF
T1 construct: EGFR in the form of A431 cell membrane receptor preparations; endogenous in cells; host or cells: A431 cell membranes
Procedure: (§1) To examine the kinase activity of epidermal growth factor receptor (EGFR) in the presence of hEGF and EGF variants, an ELISA was developed. Briefly, an ELISA plate is coated with poly-glu, tyr (4:1) which serves as a substrate for tyrosine phosphorylation by the EGFR. The ELISA plate is then incubated with assay buffer, which includes an ATP generating system, EGFR in the form of A431 cell membrane receptor preparations, and EGF variant. After a 15 minute incubation ATP is added to the reaction to allow the kinase activity to proceed. Anti-phosphotyrosine antibody is added to bind to the phosphorylated tyrosine bound to the plate. Anti-mouse HRP conjugate antibody is added as the detection antibody, which is visualized with the addition of tetramethyl benzidine (TMB).
The glycine at position 18 was replaced by glutamate (G18E), glutamine (G18Q), lysine (G18K), phenylalanine (G18F), and leucine (G18L). These variants were tested in the kinase assay described above and compared with recombinant wild-type human EGF (MLX hEGF).
The following variations in the glycine at position 39 were made: G39E, G39Q, G39K, and G39L.

[2] = tested on: HER5 cell line (expresses the human EGF receptor); test: HER5 cell proliferation assay (WST-1); format: cell-based, murine; conditions: 48 hour proliferation, serum-free, WST-1 OD 450
Procedure: The HER5 cell line, a murine fibroblast line (derived from the NR-6 line) that has been stably transfected to express the human EGF receptor was provided by Dr. M. C. Hung (MD Anderson Cancer Center). Stock cultures of HER5 were propagated in D-MEM/F12 medium containing 10% fetal bovine serum, 100 units/ml of penicillin and 100 ug/ml of streptomycin in a water-jacketed incubator at 37° C. in a humidified 5% CO2 atmosphere. For HER5 proliferation assays, the cells were changed into DMEM/F12 without serum for 24 hours. Cells were then trypsinized and suspended at 1E5 cells/ml. Serial dilutions of hEGF (PeproTech, Rocky Hill, N.J.), His-tagged hEGF, test proteins were prepared in serum-free DMEM/F12 at 2-fold the final concentration and plated into the wells of 96-well plates. Fifty microliters of cell suspension (5000 cells) were added to appropriate wells bringing the total volume to 100 ul at the desired concentrations. Plates were incubated for a 48 hour proliferation period. Cell proliferation was determined by addition of 10 ul/well of WST-1 Cell Proliferation Reagent (Roche Applied Sciences, Indianapolis, Ind.) for the last three hours of the proliferation period. […] The amount of formazan was measured at 450 nm using a microplate reader (Dynex Technologies) with MRX Revelation software.

BALB/3T3 cells = test: BALB/3T3 proliferation competition assay with hEGF; format: cell-based, murine; conditions: 0.5 nM and 5.0 nM hEGF, 48 hours
Procedure: The BALB/3T3 proliferation assay was modified to test variants for competition with hEGF in the stimulation of BALB/3T3 cell proliferation. Serial dilutions of the test mutants were tested for proliferation in the presence of 0 nM, 0.5 nM, and 5 nM of the MLX-hEGF. BALB/3T3 cells were suspended at 3E4 cells/ml in complete serum media. 100 ul of cell suspension was plated per well in 96-well plates and incubated for 20-24 hours. Media was then aspirated from the wells, and the cells were washed once with DPBS. His-tagged wild-type hEGF at twice the final concentration was added in 50 ul/well. Serial dilutions of test mutants were prepared at twice the final concentration in serum-free media and 50 ul was added per well, bringing the final volume per well to 100 ml at the target concentrations of wt-hEGF and test mutants. Assay plates were incubated for 48 hours and cell proliferation was determined with WST-1 cell proliferation reagent (10 ul/well, 5 hr incubation). The absorbance at 450 nm was read with a microplate reader.

[3] = biological target: T1, EGFR in the form of A431 cell membrane receptor preparations; test: EGFR kinase competition ELISA; format: biochemical; conditions: 50 nM human EGF added
Procedure: as §1
The EGFR kinase competition assay is basically the same as outlined above in the description of the kinase ELISA. The difference is that in the initial incubation with the EGFR and EGF variant, 50 nM human EGF is added which competes with the EGF variant for binding to the EGFR. Both the variant EGF and the human EGF are added to the assay plate before the addition of the EGFR and assay buffer, making sure neither ligand has an advantage in binding to the EGFR.

EGFR = EGFR (Homo sapiens, UniProt P00533); test: EGFR dimerization (FIG. 6)
[4] = tested on: hEGF-stimulated cell proliferation; test: Inhibition of hEGF-stimulated cell proliferation (FIG. 4, FIG. 5); format: cell-based; conditions: figure legends, cell line not stated

activation of the EGFR kinase [1] | triggering of EGFR dimerization (EGFR) | Substance | potency in the HER5 proliferation assay [2] | competition with hEGF in stimulation of BALB/3T3 cell proliferation (BALB/3T3 cells) | competition with hEGF-related stimulation of EGFR kinase [3] | inhibition of hEGF-stimulated cell proliferation [4]
some slight activity |  | G39E: hEGF polypeptide variant, G39 replaced by glutamate (NSDSECPLSHDGYCLHDGVCMYIEALDKYACNCVVGYIEERCQYRDLKWWELR; not fully specified; left off: small tags and cut ends) |  |  |  | 
some slight activity |  | G39K: hEGF polypeptide variant, G39 replaced by lysine (NSDSECPLSHDGYCLHDGVCMYIEALDKYACNCVVGYIKERCQYRDLKWWELR; not fully specified; left off: small tags and cut ends) | least potency in that series | Apparent competition was observed at both hEGF concentrations |  | 
unable to activate the EGFR kinase | does not trigger EGFR dimerization | V35EG39L: hEGF polypeptide variant, glycine 39 substituted with leucine and valine 35 with glutamic acid (NSDSECPLSHDGYCLHDGVCMYIEALDKYACNCVEGYILERCQYRDLKWWELR; not fully specified; left off: small tags and cut ends) |  |  | marked interference with hEGF-related stimulation of EGFR kinase | inhibition of hEGF-stimulated cell proliferation
 |  | G39L: hEGF polypeptide variant, G39 replaced by leucine (NSDSECPLSHDGYCLHDGVCMYIEALDKYACNCVVGYILERCQYRDLKWWELR; not fully specified; left off: small tags and cut ends) | least potency in that series | only seen in at 0.5 nM hEGF | marked interference with hEGF-related stimulation of EGFR kinase | inhibition of hEGF-stimulated cell proliferation

From patent US7470769B2, “Epidermal growth factor receptor antagonists and methods of use” (Molecular Logix, Inc., priority 2004, dated 2008)
